From patent US20100221262A1 (Genentech, published 2010)

Assays:
[1] = target: T1, murine Netrin-1-Fc (Laminin V and VI homology domains, amino acid M1 to amino acid P455, fused to the Fc … (murine; human, UniProt O09118 25-455); assay: SPR (ProteOn), Unc5B-His immobilised, mNetrin-1 injected at 250 nM
Procedure: (§1) Binding experiments were performed by surface plasmon resonance SPR measurements on a ProteOn XPR36 instrument (Bio-Rad Laboratories, Inc.) at 25° C. In accordance with common SPR terminology, proteins that are immobilized onto the sensor chip are referred to as ‘ligands’, whereas binding partners injected in solution are referred to as ‘analytes’.
(§2) For binding competition experiments human Unc5B-Fc and Unc5B-His proteins were used as ligands and immobilized at high surface densities (3000-4000 RU) on an activated ProteOn GLC sensor chip (Bio-Rad Laboratories, Inc.). Unc5B antibodies and Netrin-Fc were used as analytes. To perform binding assays, analytes and 1:1 molar mixtures of analytes were injected in PBS, 0.005% v/v Tween-20, pH 7.4, at a flow rate of 100 μl/min and sensorgrams for association and dissociation phases were recorded. Blank surfaces are used for background corrections. Analytes are injected for 240 s and allowed to dissociate for 600 s. […]
(§3) For the SPRs binding experiments Unc5B-His and -Fc proteins were immobilized onto a ProteOn GLC sensor chips and mNetrin-1, Unc5B antibodies or equimolar mixtures of Unc5B antibodies and Netrin-1 were injected as indicated at a concentration of 250 nM. Binding sensorgrams were recorded for association and dissociation reactions. […]

[2] = target: T1, murine Netrin-1-Fc (Laminin V and VI …); assay: SPR (ProteOn), Unc5B-Fc immobilised, mNetrin-1 injected at 250 nM
Procedure: as §1, §2, §3

Row | binding result [1] | binding result [2] | Binder
1 | binds | – | human Unc5B-His (two N-terminal Ig-like domains of Unc5B, amino acid M1 to amino acid V243, C-terminal Histidine tag) (receptor, range 1-243; The cloned range M1-V243 includes the native signal peptide; also called human Unc5B-His tagged protein; not shown: C-terminal Histidine tag) not shown
2 | – | binds | human Unc5B-Fc (two N-terminal Ig-like domains of Unc5B, amino acid M1 to amino acid V243, fused to the Fc portion of human IgG1) (Fc fusion, range 1-243; not shown: Fc portion of human IgG1) not shown
